Assay results as given in paper PMC6446281.

Experiments:
[1] = target: GFP-IN 3VI mutant (V72A/I73A, I200A/V201A, V259A/V260A) (HIV-1); assay: co-IP
[2] = target: HA-SUMO3 (UniProt P55854); assay: co-IP (IP anti-HA, WB anti-GFP) with densitometric analysis; conditions: 293 T cells cotransfected with GFP-INwt/mut and HA-SUMO3; parent: est. 1.0; read off a plot
[3] = target: HA-SUMO3 (UniProt P55854); assay: co-IP; 293T cells cotransfected with GFP-INwt/mut and HA-SUMO2 or HA-SUMO3, 40 h; lysis buffer 20 mM Tris-HCl pH 7.5, 100 mM NaCl, 0.5% NP-40, 0.5 mM EDTA; immunoprecipitated with anti-HA, blotted with anti-GFP; densitometry with GFP-INwt set as 100%
[4] = target: M2 and M3; assay: co-IP; 293T cells cotransfected with GFP-INwt/mut and T7-LEDGF/p75, T7-Ku70 or HA-Ubc9; immunoprecipitated with rabbit anti-GFP, blotted with anti-T7 or anti-HA
[5] = target: M1 + M2 and M1 + M3 mutants; assay: as above

Sequence of T7-Ku70 (P12956 whole entry): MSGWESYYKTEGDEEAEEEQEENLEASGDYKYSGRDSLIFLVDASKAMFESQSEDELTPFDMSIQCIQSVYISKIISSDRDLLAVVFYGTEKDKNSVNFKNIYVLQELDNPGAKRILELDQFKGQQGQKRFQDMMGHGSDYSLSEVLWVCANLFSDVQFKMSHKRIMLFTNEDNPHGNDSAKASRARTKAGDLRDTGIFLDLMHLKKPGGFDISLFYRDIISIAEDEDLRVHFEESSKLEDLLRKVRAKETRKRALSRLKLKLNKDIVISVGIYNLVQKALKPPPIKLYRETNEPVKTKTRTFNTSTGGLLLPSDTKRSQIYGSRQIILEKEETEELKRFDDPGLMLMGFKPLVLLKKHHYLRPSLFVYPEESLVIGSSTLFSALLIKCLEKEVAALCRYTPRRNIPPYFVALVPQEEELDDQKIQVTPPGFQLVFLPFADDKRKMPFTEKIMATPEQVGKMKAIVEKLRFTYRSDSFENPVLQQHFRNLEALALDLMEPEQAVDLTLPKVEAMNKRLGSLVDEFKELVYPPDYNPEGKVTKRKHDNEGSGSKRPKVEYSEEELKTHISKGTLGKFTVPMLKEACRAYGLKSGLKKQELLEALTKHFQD

T7-Ku70 (from UniProt P12956 1-609) (natural protein)
fold change in binding against INwt [1]: 2 fold

GFP-IN wild type (HIV-1 integrase, codon-optimized, fused to AcGFP) K46R; K136R; K244R
ratio to parent [2]: 1.1

GFP-IN wild type (HIV-1 integrase, codon-optimized, fused to AcGFP) V72A; I73A; I200A; V201A; V259A; V260A
ratio to parent [2]: 0.01

GFP-IN mutant M2 (I200A/V201A) (enzyme)
percent reduction in binding against GFP-INwt [3]: 80%

T7-LEDGF/p75 (lens-epithelium-derived growth factor) (from UniProt O75475 1-530) (natural protein)
percent of the binding of INwt [4]: 40 to 60%
percent of the binding of INwt [5]: 10 to 20%
percent of the binding of INwt [1]: < 10%

GFP-IN mutant M3 (V259A/V260A) (enzyme)
percent reduction in binding against GFP-INwt [3]: 67%

GFP-IN wild type (HIV-1 integrase, codon-optimized, fused to AcGFP) V72A; I73A
ratio to parent [2]: 1.2
